Here are results for two molecules from PMC5864917 (2018).

Broadly, the Kd is a measure of binding affinity in units of concentration. Read a high Kd as weaker binding.

The target of experiment [1] is biotinylated SE36 (Plasmodium falciparum (Honduras-1)). Description: SPR; Biacore T200, chip SA; biotinylated SE36 immobilized at 200 RU via streptavidin; purified VTN 1.25-20 μg/mL (~17.9-285.7 nM) flowed at 20 μL/min, 25 °C, PBS with 0.05% Tween 20; fitted to 1:1 binding and bivalent analyte models. For orientation: Surface plasmon resonance follows binding to a sensor surface in real time, without labels.

The target of another experiment is T1, SERA5 SE36 (Plasmodium falciparum, UniProt Q9TY95).
T1 chain: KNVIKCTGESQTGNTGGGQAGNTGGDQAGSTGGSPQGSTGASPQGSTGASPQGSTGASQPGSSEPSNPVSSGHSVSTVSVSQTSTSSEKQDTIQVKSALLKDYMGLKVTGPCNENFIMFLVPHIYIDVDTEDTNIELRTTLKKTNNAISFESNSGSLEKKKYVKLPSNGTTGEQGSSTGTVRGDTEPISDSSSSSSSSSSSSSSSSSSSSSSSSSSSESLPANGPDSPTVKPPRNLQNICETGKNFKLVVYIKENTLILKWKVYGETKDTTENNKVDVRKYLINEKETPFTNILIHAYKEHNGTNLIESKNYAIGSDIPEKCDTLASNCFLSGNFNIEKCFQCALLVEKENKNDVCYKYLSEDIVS
The experiment in a line: SPR.

“Vitronectin (VTN), human (natural protein)”: in experiment [1], the KD1 (bivalent analyte model, first interaction) stood at 3.7 nM; the ka1 (bivalent analyte model, first interaction) is 550000 M⁻¹ s⁻¹; the kd1 (bivalent analyte model, first interaction) was determined as 0.002 s⁻¹.

B1: Vitronectin (protein)
chain: ATWLSLFSSEESNLGANNYDDYRMDWLVPATCEPIQSVFFFSGDKYYRVNLRTRRVDTVDPPYPRSIAQYWLGCPAPGHL
Consider B1, for which binding with SERA5 SE36 was put at a Kd of 3.7 nM.
